Assay results published in patent EP4678655A1.
Where “and” joins values, the source holds several entries; their conditions need not be identical. Equal values may be shown once.

Experiments:
[1] = target: T1, hTregL1-his tryptic peptide 499-529 (human); assay: affinity-MS: tryptic antigen peptides eluted from antibody-CNBr column, LC-MS
T1 sequence (peptide): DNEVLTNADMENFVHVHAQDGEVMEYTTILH

[2] = target: T2, hTregL1-his tryptic peptide 498-531 (human); assay: as above
T2 sequence (peptide): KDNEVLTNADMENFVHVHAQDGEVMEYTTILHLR

[3] = target: T3, hTregL1-his tryptic peptide 499-531 (human); assay: as above
T3 sequence (peptide): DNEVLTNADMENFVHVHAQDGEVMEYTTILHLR

[4] = target: T4, hTregL1-his chymotryptic peptide 529-535 (human); assay: affinity-MS: chymotryptic antigen peptides eluted from antibody-CNBr column, LC-MS
T4 sequence (peptide): HLRQVTF

[5] = target: T5, hTregL1-his chymotryptic peptide 270-280 (human); assay: as above
T5 sequence (peptide): SFCQKLHELVL

[6] = target: T6, hTregL1-his chymotryptic peptide 430-440 (human); assay: as above
T6 sequence (peptide): VTATCAHPESL

[7] = target: T7, hTregL1-his chymotryptic peptide 624-636 (human); assay: as above
T7 sequence (peptide): FITDVKIDDAGVY

[8] = target: T8, hTregL1-his chymotryptic peptide 447-471 (human); assay: as above
T8 sequence (peptide): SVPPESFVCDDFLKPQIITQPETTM

[9] = target: T9, hTregL1-his chymotryptic peptide 472-492 (human); assay: as above
T9 sequence (peptide): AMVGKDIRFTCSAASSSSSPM

[10] = target: T10, hTregL1-his chymotryptic peptide 728-744 (human); assay: as above
T10 sequence (peptide): TCEMSNTLGTERAHSQL

[11] = target: T11, hTregL1-his chymotryptic peptide 113-134 (human); assay: as above
T11 sequence (peptide, N-glycan at 116(N)): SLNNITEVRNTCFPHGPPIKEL

[12] = target: T12, hTregL1-his chymotryptic peptide 427-440 (human); assay: as above
T12 sequence (peptide): QAFVTATCAHPESL

[13] = target: T13, hTregL1-his chymotryptic peptide 430-446 (human); assay: as above
T13 sequence (peptide): VTATCAHPESLKGQSIF

[14] = target: T14, hTregL1-his chymotryptic peptide 585-598 (human); assay: as above
T14 sequence (peptide): ECAATGHPNPQIAW

[15] = target: T15, hTregL1-his chymotryptic peptide 536-553 (human); assay: as above
T15 sequence (peptide): GHEGRYQCVITNHFGSTY

[16] = target: T16, hTregL1-his chymotryptic peptide 402-416 (human); assay: as above
T16 sequence (peptide): HISSDSFLCDCQLKW

[17] = target: T17, hTregL1-his chymotryptic peptide 637-653 (human); assay: as above
T17 sequence (peptide, N-glycan at 650(N)): SCTAQNSAGSISANATL

[18] = target: T18, hTregL1-his chymotryptic peptide 327-344 (human); assay: as above
T18 sequence (peptide): DLDHNEISGTIEDTSGAF

B1: GTC310-01-hlgG1 (antibody, human IgG1, kappa, V domains shown)
VH: EVQLLESGGGLVQPGGSLRLSCAASGFTFSNYAMSWVRQAPGKGLEWVSVISHGGGSTYYADSVKGRFTISRDNSKNTLYLQMNSLRAEDTAVYYCARVISNCHLGVCYYSNGMDVWGQGTLVTVSS
VL: QLVLTQPPSVSAAPGQRVSISCSGSSSNIGDNYVSWYQQVPGSAPKLLIYDNNKRPSGIPDRFSASKSGTSATLGITGLQTGDEADYYCATWDGSLSAGRVFGGGTKLTVLR
MS Area [1]: 1.21e+06 and 726000 and 442000
MS Area [2]: 7.66e+06 and 4.64e+06 and 4.1e+06
MS Area [3]: 1.9e+07 (2×) and 6.9e+06
MS Area [4]: 378000 and 312000
MS Area [5]: 459000 and 335000
MS Area [6]: 1.59e+07 and 1.18e+07
MS Area [7]: 473000 and 399000
MS Area [8]: 1.62e+06 and 1.32e+06
MS Area [9]: 407000 and 325000
MS Area [10]: 335000 and 736000
MS Area [11]: 556000 and 544000
MS Area [12]: 1.05e+06 and 554000
MS Area [13]: 1e+06 and 705000
MS Area [14]: 766000 and 374000
MS Area [15]: 497000 and 295000
MS Area [16]: 1.67e+07 and 7.24e+06
MS Area [17]: 334000 and 207000
MS Area [18]: 283000 and 298000
